From IntAct's records for PubMed 39938803

B1: Retinoblastoma-associated protein (Homo sapiens), P06400 (parent)
chain: MPPKTPRKTAATAAAAAAEPPAPPPPPPPEEDPEQDSGPEDLPLVRLEFEETEEPDFTALCQKLKIPDHVRERAWLTWEKVSSVDGVLGGYIQKKKELWGICIFIAAVDLDEMSFTFTELQKNIEISVHKFFNLLKEIDTSTKVDNAMSRLLKKYDVLFALFSKLERTCELIYLTQPSSSISTEINSALVLKVSWITFLLAKGEVLQMEDDLVISFQLMLCVLDYFIKLSPPMLLKEPYKTAVIPINGSPRTPRRGQNRSARIAKQLENDTRIIEVLCKEHECNIDEVKNVYFKNFIPFMNSLGLVTSNGLPEVENLSKRYEEIYLKNKDLDARLFLDHDKTLQTDSIDSFETQRTPRKSNLDEEVNVIPPHTPVRTVMNTIQQLMMILNSASDQPSENLISYFNNCTVNPKESILKRVKDIGYIFKEKFAKAVGQGCVEIGSQRYKLGVRLYYRVMESMLKSEEERLSIQNFSKLLNDNIFHMSLLACALEVVMATYSRSTSQNLDSGTDLSFPWILNVLNLKAFDFYKVIESFIKAEGNLTREMIKHLERCEHRIMESLAWLSDSPLFDLIKQSKDREGPTDHLESACPLNLPLQNNHTAADMYLSPVRSPKKKGSTTRVNSTANAETQATSAFQTQKPLKSTSLSLFYKKVYRLAYLRLNTLCERLLSEHPELEHIIWTLFQHTLQNEYELMRDRHLDQIMMCSMYGICKVKNIDLKFKIIVTAYKDLPHAVQETFKRVLIKEEEYDSIIVFYNSVFMQRLKTNILQYASTRPPTLSPIPHIPRSPYKFPSSPLRIPGGNIYISPLKSPYKISEGLPTPTKMTPRSRILVSIGESFGTSEKFQKINQMVCNSDRVLKRSAEGSNPPKPLKKLRFDIEGSDEADGSKHLPGESKFQQKLAEMTSTRTRMQKQKMNDSMDTSNKEEK

Columns and labels:
e2f1_human E2F1, Q01094 [1] = variants of: B1; conditions: with e2f1_human E2F1, Q01094
e2f1_human E2F1, Q01094 [2] = variants of: B1; conditions: with e2f1_human E2F1, Q01094; remark: listed apart in the source
ve7_hpv16 E7, P03129 [3] = variants of: B1; conditions: with ve7_hpv16 E7, P03129
ve7_hpv16 E7, P03129 [4] = variants of: B1; conditions: with ve7_hpv16 E7, P03129; remark: listed apart in the source

Chain of e2f1_human E2F1, Q01094 (Q01094 whole entry): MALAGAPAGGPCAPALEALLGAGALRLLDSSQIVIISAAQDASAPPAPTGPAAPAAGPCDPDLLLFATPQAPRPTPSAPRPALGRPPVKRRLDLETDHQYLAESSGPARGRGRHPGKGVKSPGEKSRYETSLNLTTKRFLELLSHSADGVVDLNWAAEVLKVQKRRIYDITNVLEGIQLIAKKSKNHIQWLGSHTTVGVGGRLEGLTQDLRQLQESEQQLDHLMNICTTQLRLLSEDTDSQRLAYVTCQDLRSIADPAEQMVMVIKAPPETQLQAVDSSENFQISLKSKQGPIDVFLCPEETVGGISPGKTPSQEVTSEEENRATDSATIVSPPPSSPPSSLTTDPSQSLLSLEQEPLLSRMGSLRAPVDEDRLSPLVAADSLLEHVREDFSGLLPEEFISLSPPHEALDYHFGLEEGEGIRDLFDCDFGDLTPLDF
Chain of ve7_hpv16 E7, P03129 (P03129 whole entry): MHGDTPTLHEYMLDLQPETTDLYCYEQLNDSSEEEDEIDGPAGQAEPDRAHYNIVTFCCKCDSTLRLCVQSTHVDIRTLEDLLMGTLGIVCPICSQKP

Row | Variant | effect of a mutation on the interaction (e2f1_human E2F1, Q01094 [1]) | effect of a mutation on the interaction (e2f1_human E2F1, Q01094 [2]) | effect of a mutation on the interaction (ve7_hpv16 E7, P03129 [3]) | effect of a mutation on the interaction (ve7_hpv16 E7, P03129 [4])
1 | T638S | with no effect | decreasing interaction strength | decreasing interaction strength | 
2 | Q444R | decreasing interaction strength |  | decreasing interaction strength | 
3 | Q444L | with no effect | decreasing interaction strength | increasing interaction strength | 
4 | K548N | disrupting interaction strength |  | decreasing interaction strength | 
5 | E675Q | decreasing interaction strength |  | decreasing interaction strength | 
6 | I703V | decreasing interaction strength | disrupting interaction strength | decreasing interaction strength | 
7 | I703F | decreasing interaction strength | disrupting interaction strength | decreasing interaction strength | disrupting interaction strength
8 | E539D | decreasing interaction strength | disrupting interaction strength | decreasing interaction strength | 
9 | S588F | decreasing interaction strength |  | with no effect | decreasing interaction strength
10 | P595L | decreasing interaction strength |  | decreasing interaction strength | 
11 | H673P | decreasing interaction strength | disrupting interaction strength | decreasing interaction strength | 
12 | H673Y | decreasing interaction strength |  | decreasing interaction strength | 
13 | R763T | decreasing interaction strength |  | decreasing interaction strength | 
14 | K462E | decreasing interaction strength |  | decreasing interaction strength | 
15 | K462T | decreasing interaction strength |  | decreasing interaction strength | 
16 | I679F | decreasing interaction strength |  | decreasing interaction strength | 
17 | R611S | decreasing interaction strength |  | with no effect | decreasing interaction strength
18 | S463L | decreasing interaction strength |  | decreasing interaction strength | 
19 | A525G | decreasing interaction strength |  | decreasing interaction strength | 
20 | A490S | decreasing interaction strength |  | decreasing interaction strength | 
21 | A490T | decreasing interaction strength | disrupting interaction strength | decreasing interaction strength | 

Row | Variant | effect of a mutation on the interaction (e2f1_human E2F1, Q01094 [1]) | effect of a mutation on the interaction (e2f1_human E2F1, Q01094 [2]) | effect of a mutation on the interaction (ve7_hpv16 E7, P03129 [3]) | effect of a mutation on the interaction (ve7_hpv16 E7, P03129 [4])
22 | A490V | decreasing interaction strength |  | decreasing interaction strength | 
23 | M704V | decreasing interaction strength | disrupting interaction strength | decreasing interaction strength | 
24 | R451C | decreasing interaction strength |  | decreasing interaction strength | 
25 | R451S | decreasing interaction strength |  | decreasing interaction strength | 
26 | R451H | decreasing interaction strength |  | decreasing interaction strength | 
27 | Y606C | decreasing interaction strength |  | decreasing interaction strength | 
28 | R556Q | decreasing interaction strength |  | with no effect | decreasing interaction strength
29 | D584Y | decreasing interaction strength |  | decreasing interaction strength | 
30 | V754G | decreasing interaction strength |  | decreasing interaction strength | 
31 | D697E | decreasing interaction strength | disrupting interaction strength | decreasing interaction strength | 
32 | S612P | decreasing interaction strength |  | decreasing interaction strength | 
33 | R621P | decreasing interaction strength |  | decreasing interaction strength | 
34 | R621H | decreasing interaction strength |  | decreasing interaction strength | 
35 | R668C | increasing interaction strength | decreasing interaction strength | increasing interaction strength | decreasing interaction strength
36 | S443L | decreasing interaction strength |  | decreasing interaction strength | 
37 | S751Y | decreasing interaction strength | disrupting interaction strength | disrupting interaction strength | 
38 | L572I | decreasing interaction strength |  | increasing interaction strength | decreasing interaction strength
39 | K530I | disrupting interaction strength |  | decreasing interaction strength | 
40 | M695I | decreasing interaction strength | disrupting interaction strength | decreasing interaction strength | 
41 | A488V | decreasing interaction strength |  | decreasing interaction strength | 
42 | S534R | disrupting interaction strength |  | increasing interaction strength | decreasing interaction strength

Row | Variant | effect of a mutation on the interaction (e2f1_human E2F1, Q01094 [1]) | effect of a mutation on the interaction (e2f1_human E2F1, Q01094 [2]) | effect of a mutation on the interaction (ve7_hpv16 E7, P03129 [3]) | effect of a mutation on the interaction (ve7_hpv16 E7, P03129 [4])
43 | H555Y | disrupting interaction strength |  | decreasing interaction strength | 
44 | T620M | decreasing interaction strength |  | decreasing interaction strength | 
45 | Q504E | decreasing interaction strength |  | with no effect | decreasing interaction strength
46 | E693A | decreasing interaction strength |  | decreasing interaction strength | 
47 | R656W | decreasing interaction strength |  | decreasing interaction strength | 
48 | H585Y | decreasing interaction strength |  | decreasing interaction strength | 
49 | S671F | decreasing interaction strength |  | decreasing interaction strength | 
50 | H699P | decreasing interaction strength |  | decreasing interaction strength | 
51 | M761L | decreasing interaction strength |  | increasing interaction strength | 
52 | R741H | decreasing interaction strength |  | decreasing interaction strength | 
53 | R741C | decreasing interaction strength |  | decreasing interaction strength | 
54 | T664A | decreasing interaction strength |  | decreasing interaction strength | 
55 | E533K | disrupting interaction strength |  | decreasing interaction strength | 
56 | L550I | decreasing interaction strength |  | increasing interaction strength | 
57 | S474N | decreasing interaction strength |  | decreasing interaction strength | 
58 | S474R | disrupting interaction strength |  | with no effect | decreasing interaction strength
59 | S474I | disrupting interaction strength |  | decreasing interaction strength | 
60 | M546I | increasing interaction strength |  | decreasing interaction strength | 
61 | D604G | decreasing interaction strength |  | decreasing interaction strength | 
